Results published in US20050287608A1.
Values belong to the binder of their own block, whether it stands above or below them.

Columns and labels:
[1] = molecular target: ubiquitinated proteins of yeast cells; assay: Flag purification from yeast cells, anti-Ub immunoblot
[2] = molecular target: ubiquitinated proteins of yeast cells; assay: Flag-Rad23 precipitation from yeast extracts, anti-Ub immunoblot, adjusted for the amount of Flag-Rad23 precipitated

decrease of binding, against Flag-Rad23 [1]: 20%
B1: Flag-rad23^uba2 (yeast Rad23 L392A, amino-terminal Flag epitope) (protein, yeast (Saccharomyces cerevisiae), UniProt P32628 1-398, looked up, not shown: small tags and cut ends)
chain: MVSLTFKNFKKEKVPLDLEPSNTILETKTKLAQSISCEESQIKLIYSGKVLQDSKTVSECGLKDGDQVVFMVSQKKSTKTKVTEPPIAPESATTPGRENSTEASPSTDASAAPAATAPEGSQPQEEQTATTERTESASTPGFVVGTERNETIERIMEMGYQREEVERALRAAFNNPDRAVEYLLMGIPENLRQPEPQQQTAAAAEQPSTAATTAEQPAEDDLFAQAAQGGNASSGALGTTGGATDAAQGGPPGSIGLTVEDLLSLRQVVSGNPEALAPLLENISARYPQLREHIMANPEVFVSMLLEAVGDNMQDVMEGADDMVEGEDIEVTGEAAAAGLGQGEGEGSFQVDYTPEDDQAISRLCELGFERDLVIQVYFACDKNEEAAANIAFSDHAD

interaction remaining, compared to the wildtype protein [1]: 1%
B2: Flag-rad23^uba1uba2 (yeast Rad23 with mutations in both UBA domains, amino-terminal Flag epitope) (protein, yeast (Saccharomyces cerevisiae), UniProt P32628 1-398, looked up, not shown: small tags and cut ends)
chain: MVSLTFKNFKKEKVPLDLEPSNTILETKTKLAQSISCEESQIKLIYSGKVLQDSKTVSECGLKDGDQVVFMVSQKKSTKTKVTEPPIAPESATTPGRENSTEASPSTDASAAPAATAPEGSQPQEEQTATTERTESASTPGFVVGTERNETIERIMEMGYQREEVERALRAAFNNPDRAVEYALMGIPENLRQPEPQQQTAAAAEQPSTAATTAEQPAEDDLFAQAAQGGNASSGALGTTGGATDAAQGGPPGSIGLTVEDLLSLRQVVSGNPEALAPLLENISARYPQLREHIMANPEVFVSMLLEAVGDNMQDVMEGADDMVEGEDIEVTGEAAAAGLGQGEGEGSFQVDYTPEDDQAISRLCELGFERDLVIQVYFACDKNEEAAANIAFSDHAD

fold increase of the interaction after treatment with 4-NQO, against untreated cells [2]: 2 fold
B3: Flag-Rad23 (yeast Rad23 with an amino-terminal Flag epitope) (protein, yeast (Saccharomyces cerevisiae), UniProt P32628 1-398, looked up, not shown: small tags and cut ends)
chain: MVSLTFKNFKKEKVPLDLEPSNTILETKTKLAQSISCEESQIKLIYSGKVLQDSKTVSECGLKDGDQVVFMVSQKKSTKTKVTEPPIAPESATTPGRENSTEASPSTDASAAPAATAPEGSQPQEEQTATTERTESASTPGFVVGTERNETIERIMEMGYQREEVERALRAAFNNPDRAVEYLLMGIPENLRQPEPQQQTAAAAEQPSTAATTAEQPAEDDLFAQAAQGGNASSGALGTTGGATDAAQGGPPGSIGLTVEDLLSLRQVVSGNPEALAPLLENISARYPQLREHIMANPEVFVSMLLEAVGDNMQDVMEGADDMVEGEDIEVTGEAAAAGLGQGEGEGSFQVDYTPEDDQAISRLCELGFERDLVIQVYFACDKNEEAAANILFSDHAD
